Columns and labels:
[1] = molecular target: T1, Human ROR1-ECD-his (Acro Biosystems RO1-H522y) (human, UniProt Q01973 30-406); assay: BLI in-tandem, row = 1st Ab; competitor (2nd Ab): PR007424
T1 construct: extracellular domain; bought protein; also called hROR1-ECD-his; hu-ROR1-ECD-his
Source text: (§1) To determine if anti-ROR1 antibodies bind to human ROR1 on different or approximate binding epitopes, the ForteBio Octet® RED96e platform was used to perform epitope competition experiments on the anti-ROR1 antibodies. Human ROR1 protein (Acrobiosystems, #RO1-H522y) was biotinylated and then captured onto SA biosensors (ForteBio, #18-5020) to reach loading level of 0.3-0.4 nm. The in-tandem competition assay format was applied and it contains two association steps. Firstly, the antigen-loaded biosensors bind to each antibody (a.k.a, First antibody, 1st Ab) with a saturating concentration of 200 nM for 180 seconds to reach equilibrium and then secondly bind to the competing antibodies (a.k.a, Second antibody, 2nd Ab) of 200 nM for 180 seconds. The second binding signals were recorded as the 100% signal of each antibody when the first antibodies were replaced by kinetics buffer. All the binding data were analyzed using ForteBio Data Analysis 11.0 software. The inhibition rate is calculated by the following formula: […]

[2] = molecular target: T2, human ROR1 on cells (HEK293T-hROR1, PANC-1, A549) (human, UniProt Q01973 30-937); assay: flow cytometry on PANC-1 cells, MFI (APC-A Median)
T2 construct: whole, on cells; one molecule for the three cell lines; also called huROR1; cell surface ROR1
T2 sequence (Q01973 30-937): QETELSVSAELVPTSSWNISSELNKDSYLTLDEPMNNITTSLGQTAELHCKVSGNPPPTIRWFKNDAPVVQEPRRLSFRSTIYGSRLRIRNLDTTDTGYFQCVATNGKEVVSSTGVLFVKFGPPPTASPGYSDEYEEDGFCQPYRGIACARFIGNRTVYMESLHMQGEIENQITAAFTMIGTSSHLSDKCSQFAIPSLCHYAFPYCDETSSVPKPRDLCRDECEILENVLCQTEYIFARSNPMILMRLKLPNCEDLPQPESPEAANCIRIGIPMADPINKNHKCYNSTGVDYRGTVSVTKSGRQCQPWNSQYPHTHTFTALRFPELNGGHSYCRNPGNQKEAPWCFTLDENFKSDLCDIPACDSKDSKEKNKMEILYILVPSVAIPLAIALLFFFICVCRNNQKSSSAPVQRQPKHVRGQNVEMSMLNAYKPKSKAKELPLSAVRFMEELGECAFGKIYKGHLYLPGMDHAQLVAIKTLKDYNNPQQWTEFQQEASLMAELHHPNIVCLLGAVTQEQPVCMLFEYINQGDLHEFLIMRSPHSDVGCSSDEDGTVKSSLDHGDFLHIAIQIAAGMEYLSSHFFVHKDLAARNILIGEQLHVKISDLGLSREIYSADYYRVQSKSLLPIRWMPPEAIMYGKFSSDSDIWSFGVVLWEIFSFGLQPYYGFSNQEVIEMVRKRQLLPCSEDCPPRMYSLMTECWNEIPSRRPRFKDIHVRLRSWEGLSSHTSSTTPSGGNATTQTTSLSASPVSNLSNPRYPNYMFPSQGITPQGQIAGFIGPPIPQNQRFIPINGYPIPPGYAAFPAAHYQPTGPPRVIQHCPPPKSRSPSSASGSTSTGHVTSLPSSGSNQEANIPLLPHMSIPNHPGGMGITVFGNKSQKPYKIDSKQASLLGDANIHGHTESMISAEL
Protocol: (§2) Binding of recombinant anti-ROR1 antibodies to human or cynomolgus ROR1-overexpressing cells was tested by flow cytometry. In this example, ROR1-expressing cell lines are HEK293T cell lines that had been transfected to express human ROR1 on the surface (HEK293T-hu ROR1, KYINNO BIOTECHNOLOGY CO., LTD, Catalog #KC-1018), CHO-K1 cell lines that had been transfected to express cynomolgus ROR1 (CHOK1-cyno ROR1), PANC-1 (ATCC, catalog: CRL-1469) or A549 cell lines (Shanghai Institute of Biochemistry and Cell Biology, Chinese Academy of Sciences).
(§3) In brief, anti-ROR1 antibodies were serially diluted in staining buffer (PBS containing 2% FBS). Antibody solution was incubated with 1×10⁵ cells at 4° C. for 1 hour. […] After 1-hour incubation at 4° C., cells were washed twice with staining buffer and subjected to flow cytometry. PR000374 (Bench marker 1) and non-relevant IgG isotype control (Crownbio) were used as positive and negative controls, respectively.

[3] = molecular target: T2, human ROR1 on cells (HEK293T-hROR1, …); assay: flow cytometry on PANC-1 cells, MFI (FITC-A Median)
Protocol: as §2, §3

[4] = molecular target: T3, cynomolgus ROR1 on CHO-K1-cynoROR1 cells (cynomolgus monkey, UniProt A0A2K5WTX7 30-937); assay: flow cytometry on CHOK1-cynoROR1 cells, MFI (APC-A Median) [middle panel, letter not given]
T3 construct: whole, on cells
Protocol: as §2, §3

[5] = molecular target: T1, Human ROR1-ECD-his (Acro Biosystems …); assay: BLI in-tandem, row = 1st Ab; competitor (2nd Ab): PR000374
Source text: as §1

[6] = molecular target: T1, Human ROR1-ECD-his (Acro Biosystems …); assay: BLI in-tandem, row = 1st Ab; competitor (2nd Ab): PR005340
Source text: as §1

T1 sequence (Q01973 30-406): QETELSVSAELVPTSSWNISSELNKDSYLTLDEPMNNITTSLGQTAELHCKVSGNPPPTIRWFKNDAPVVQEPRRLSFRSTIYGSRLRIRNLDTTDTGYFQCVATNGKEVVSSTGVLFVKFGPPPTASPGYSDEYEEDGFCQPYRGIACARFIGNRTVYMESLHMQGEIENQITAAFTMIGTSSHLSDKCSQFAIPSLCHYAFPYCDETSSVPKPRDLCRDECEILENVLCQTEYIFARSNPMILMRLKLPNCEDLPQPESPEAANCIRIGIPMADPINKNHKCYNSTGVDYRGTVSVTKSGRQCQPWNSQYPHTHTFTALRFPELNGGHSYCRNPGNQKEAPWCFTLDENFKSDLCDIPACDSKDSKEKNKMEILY

- Inhibition (%) [1]: -8.53%
- EC50 (read off the curve) [2]: ~5 nM
- EC50 (read off the curve) [3]: ~8 nM
- EC50 (read off the curve) [4]: ~4 nM
- Inhibition (%) [5]: 111%
- Inhibition (%) [6]: -7.48%
B1: PR000374 (antibody, human IgG1, kappa, V domains shown)
VH: EVQLVESGGGLVQPGRSLRLSCTASGSDINDYPITWVRQAPGQGLEWIGFINSGGSTWYASWVKGRFTISRDDSKSIAYLQMNSLKTEDTAVYYCARGYSTYYRDFNIWGQGTLVTVSS
VL: DIQMTQSPSSLSASVGDRVTINCQASQSIDSNLAWFQQKPGQPPKLLIYRASNLASGVPDRFSGSGSGTDFTLTISSLEAEDVATYYCLGGVGAVSYRTSFGGGTKVEIKR
notes: positive control; also called Bench marker 1

Reference: patent US20250257130A1 (NONA BIOSCIENCES SUZHOU, published 2025)
